Ki data for one molecule are collected here from paper PMC4004960 (Cancer cell, 2014).

This assay addresses BRD4-BD2 (recombinant, NMR and fluorescence anisotropy) (UniProt O60885 333-460). As to the kind of experiment: fluorescence polarisation.

Ends that are not written are not given here.

Regarding SPAQGK(Ac)RGK(Ac)KSA (peptide, UniProt Q15672 68-79, looked up) [Twist-K73ac/K76ac peptide (residues 68-79)], the Ki – broadly, a measure of affinity in units of concentration, obtained from inhibition or displacement – turned out to be 800 µM.
